Each block holds one substance with its values, some of them ahead of it.
How the values were obtained:
Assay in all cases: GST pulldown (co-precipitation), anti-HA western blot band quantification
[1] = molecular target: ESCRT-I complex: GST–TSG101 (m6) + Myc–VPS28 + HA–VPS37B (m10); conditions: input 1%, value = UMAD1 pulldown band intensity / input band intensity, parent: 2.4
[2] = molecular target: ESCRT-I complex: GST–TSG101 (m6) + Myc–VPS28 + HA–VPS37D (m12); conditions: input 1%, value = UMAD1 pulldown band intensity / input band intensity, parent: 0.3
[3] = molecular target: ESCRT-I complex: GST–TSG101 (m6) + Myc–VPS28 + HA–VPS37C (m11); conditions: input 1%, value = UMAD1 pulldown band intensity / input band intensity, parent: 2.1

response ([1]; 293T cells co-transfected with GST–TSG101, Myc–VPS28, HA–VPS37B and HA–UMAD1 M4): 0.2
response ([2]; 293T cells co-transfected with GST–TSG101, Myc–VPS28, HA–VPS37D and HA–UMAD1 M4): 0
response ([3]; 293T cells co-transfected with GST–TSG101, Myc–VPS28, HA–VPS37C and HA–UMAD1 M4): 0.4
Substance: HA–UMAD1 (from UniProt C9J7I0) E130A

response ([1]; 293T cells co-transfected with GST–TSG101, Myc–VPS28, HA–VPS37B and HA–UMAD1 M1): 0
response ([2]; 293T cells co-transfected with GST–TSG101, Myc–VPS28, HA–VPS37D and HA–UMAD1 M1): 0
response ([3]; 293T cells co-transfected with GST–TSG101, Myc–VPS28, HA–VPS37C and HA–UMAD1 M1): 0
Substance: HA–UMAD1 (from UniProt C9J7I0) V89A; P90A; F91A

response ([1]; 293T cells co-transfected with GST–TSG101, Myc–VPS28, HA–VPS37B and HA–UMAD1 M3): 1.2
response ([2]; 293T cells co-transfected with GST–TSG101, Myc–VPS28, HA–VPS37D and HA–UMAD1 M3): 0
response ([3]; 293T cells co-transfected with GST–TSG101, Myc–VPS28, HA–VPS37C and HA–UMAD1 M3): 1.2
Substance: HA–UMAD1 (from UniProt C9J7I0) F127A

response ([1]; 293T cells co-transfected with GST–TSG101, Myc–VPS28, HA–VPS37B and HA–UMAD1 M2): 0.4
response ([2]; 293T cells co-transfected with GST–TSG101, Myc–VPS28, HA–VPS37D and HA–UMAD1 M2): 0
response ([3]; 293T cells co-transfected with GST–TSG101, Myc–VPS28, HA–VPS37C and HA–UMAD1 M2): 0.6
Substance: HA–UMAD1 (from UniProt C9J7I0) Y125A

Reference: PMC10445733
